In the supplement of paper PMC10126150:
± gives the standard deviation of the averaged measurements.

System: ATP
Test: switch fluorescence ratio, 500 uM ATP over buffer (Cy3 cluster intensity, sum of 5 cycles each) (fold (ratio)); higher = stronger signal-on switching upon ATP binding; sequences stand for … in TCGTCGGCAGCGTCAGATGTGTATAAGAGACAGTTTTTTTTTTTTTTTTTTTTTTTTT…TC
Conditions: aptamer strand: ATP DNA aptamer (quencher-CACCTGGGGGAGTATTGCGGAGGAAGG + anchor), 100 nM annealed; ATP concentration: 500 uM
Procedure, shortened: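 Between each of five buffer/ATP cycles, the flow-cell was stripped with NaOH and re-annealed. Each cycle imaged Cy3-labelled switching-strand clusters, annealed to 100 nM quencher-labelled ATP aptamer on a modified Illumina MiSeq flow-cell, first in selection buffer and then after 15 min with 500 uM ATP at 22 °C. The fluorescence ratio is summed target-cycle over summed buffer-cycle Cy3 intensity per cluster, averaged per switch-domain sequence, with clusters outside 100-1000 RFU excluded.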
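Further: ATP exposure 15 min at 22 °C before imaging.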

## TATTGGGTCG
  switch fluorescence ratio: 0.99 ± 0.023

## TATTGGTTGT
  switch fluorescence ratio: 0.999 ± 0.029

## TATTGTCTTT
  switch fluorescence ratio: 1.02 ± 0.025

## TATTGTGACT
  switch fluorescence ratio: 1.021 ± 0.01

## TATTGTGGCT
  switch fluorescence ratio: 0.9785 ± 0.0061

## TATTGTGTAA
  switch fluorescence ratio: 1 ± 0.023

## TATTGTTCTG
  switch fluorescence ratio: 0.9819 ± 0.0025

## TATTGTTGTT
  switch fluorescence ratio: 0.9949 ± 0.0063

## TATTTAAAAG
  switch fluorescence ratio: 1.003 ± 0.009

## TATTTAAGGG
  switch fluorescence ratio: 1.12 ± 0.16

## TATTTAATCA
  switch fluorescence ratio: 1.008 ± 0.0097

## TATTTACAGG
  switch fluorescence ratio: 1.033 ± 0.0084

## TATTTAGGAC
  switch fluorescence ratio: 0.99 ± 0.028

## TATTTATATT
  switch fluorescence ratio: 1.06 ± 0.029

## TATTTATCGG
  switch fluorescence ratio: 0.991 ± 0.013

## TATTTATGTA
  switch fluorescence ratio: 1.01 ± 0.045

## TATTTCCTGT
  switch fluorescence ratio: 0.993 ± 0.011

## TATTTCGTGG
  switch fluorescence ratio: 0.985 ± 0.024

## TATTTGAAA
  switch fluorescence ratio: 1.05 ± 0.059

## TATTTGCGCA
  switch fluorescence ratio: 1.06 ± 0.099

## TATTTGCTTT
  switch fluorescence ratio: 1.02 ± 0.015

## TATTTGGGGA
  switch fluorescence ratio: 0.999 ± 0.024

## TATTTGGTCG
  switch fluorescence ratio: 1.02 ± 0.047

## TATTTGTATG
  switch fluorescence ratio: 0.9919 ± 0.003

## TATTTGTGCT
  switch fluorescence ratio: 0.982 ± 0.011

## TATTTTACCA
  switch fluorescence ratio: 1.017 ± 0.0061

## TATTTTCCTG
  switch fluorescence ratio: 1.15 ± 0.18

## TATTTTCGGT
  switch fluorescence ratio: 0.986 ± 0.021

## TATTTTCTCA
  switch fluorescence ratio: 1.05 ± 0.049

## TATTTTCTTT
  switch fluorescence ratio: 0.982 ± 0.021

## TATTTTGGGC
  switch fluorescence ratio: 0.997 ± 0.046

## TATTTTGGTG
  switch fluorescence ratio: 0.984 ± 0.033

## TATTTTTATA
  switch fluorescence ratio: 0.992 ± 0.017

## TATTTTTATC
  switch fluorescence ratio: 1.03 ± 0.018

## TATTTTTGCC
  switch fluorescence ratio: 1.001 ± 0.0031

## TCAAAAAGGA
  switch fluorescence ratio: 1.01 ± 0.031

## TCAAAACGGT
  switch fluorescence ratio: 1.34 ± 0.51

## TCAAAACTGT
  switch fluorescence ratio: 1.07 ± 0.067

## TCAAAAGGGA
  switch fluorescence ratio: 1.02 ± 0.041

## TCAAACTGGT
  switch fluorescence ratio: 1.03 ± 0.028

## TCAAACTTAT
  switch fluorescence ratio: 1.05 ± 0.027

## TCAAAGAAC
  switch fluorescence ratio: 1.0338 ± 0.00026

## TCAAAGGTTC
  switch fluorescence ratio: 1.13 ± 0.16

## TCAAAGTTGG
  switch fluorescence ratio: 1.01 ± 0.022

## TCAACCAAAA
  switch fluorescence ratio: 1.02 ± 0.011

## TCAACGTAGA
  switch fluorescence ratio: 1.03 ± 0.014

## TCAACGTGCT
  switch fluorescence ratio: 1 ± 0.037

## TCAACTGGTG
  switch fluorescence ratio: 1.35 ± 0.16

## TCAACTTTTT
  switch fluorescence ratio: 1.01 ± 0.02

## TCAAGACGCA
  switch fluorescence ratio: 1.068 ± 0.0035

## TCAAGAGGTT
  switch fluorescence ratio: 1.001 ± 0.01

## TCAAGCCATT
  switch fluorescence ratio: 0.989 ± 0.022

## TCAAGGAGTT
  switch fluorescence ratio: 0.9773 ± 0.0047

## TCAAGGCGGA
  switch fluorescence ratio: 0.99 ± 0.012

## TCAATATTGG
  switch fluorescence ratio: 1.008 ± 0.0098

## TCAATCCTTG
  switch fluorescence ratio: 0.999 ± 0.035

## TCAATGCATG
  switch fluorescence ratio: 0.983 ± 0.035

## TCAATGGTTT
  switch fluorescence ratio: 1.12 ± 0.21

## TCAATTGGGA
  switch fluorescence ratio: 0.983 ± 0.055

## TCAATTTGGC
  switch fluorescence ratio: 1.02 ± 0.039

## TCAATTTGGG
  switch fluorescence ratio: 0.971 ± 0.022

## TCACAATGCG
  switch fluorescence ratio: 1.06 ± 0.064

## TCACAGCCG
  switch fluorescence ratio: 1.046 ± 0.0085

## TCACAGTAAT
  switch fluorescence ratio: 1.13 ± 0.063

## TCACAGTTAG
  switch fluorescence ratio: 0.998 ± 0.046

## TCACCAGGTA
  switch fluorescence ratio: 2.163 ± 0.021

## TCACCATATT
  switch fluorescence ratio: 1.05 ± 0.02

## TCACGCTTCA
  switch fluorescence ratio: 1.12 ± 0.033

## TCACGCTTTT
  switch fluorescence ratio: 1.11 ± 0.12

## TCACGTTCAA
  switch fluorescence ratio: 1.06 ± 0.022

## TCACGTTTAG
  switch fluorescence ratio: 1.03 ± 0.011

## TCACTCGAAG
  switch fluorescence ratio: 1.01 ± 0.0067

## TCAGAATCGT
  switch fluorescence ratio: 0.988 ± 0.026

## TCAGAATGCG
  switch fluorescence ratio: 0.991 ± 0.045

## TCAGAATTCA
  switch fluorescence ratio: 1.01 ± 0.012

## TCAGACTGTT
  switch fluorescence ratio: 1.01 ± 0.013

## TCAGAGGCGT
  switch fluorescence ratio: 0.9964 ± 0.0056

## TCAGAGGGCA
  switch fluorescence ratio: 1 ± 0.053

## TCAGATTGTT
  switch fluorescence ratio: 0.9623 ± 0.0028

## TCAGATTTGG
  switch fluorescence ratio: 0.9901 ± 0.006

## TCAGCGGGGG
  switch fluorescence ratio: 1.11 ± 0.16

## TCAGCGGTTT
  switch fluorescence ratio: 0.96 ± 0.055

## TCAGGACGGC
  switch fluorescence ratio: 0.99 ± 0.044

## TCAGGAGTCG
  switch fluorescence ratio: 1.02 ± 0.06

## TCAGGCTAAC
  switch fluorescence ratio: 1.01 ± 0.011

## TCAGGCTAGC
  switch fluorescence ratio: 1.07 ± 0.026

## TCAGGCTAGG
  switch fluorescence ratio: 1.02 ± 0.028

## TCAGGCTGTT
  switch fluorescence ratio: 0.968 ± 0.04

## TCAGGGACGA
  switch fluorescence ratio: 1.02 ± 0.055

## TCAGGGAGGG
  switch fluorescence ratio: 1.06 ± 0.15

## TCAGGGAGTG
  switch fluorescence ratio: 0.9758 ± 0.0095

## TCAGGGCGTG
  switch fluorescence ratio: 1 ± 0.026

## TCAGGGGAAG
  switch fluorescence ratio: 0.999 ± 0.015

## TCAGGGGCTG
  switch fluorescence ratio: 0.974 ± 0.043

## TCAGGGGGCT
  switch fluorescence ratio: 1.03 ± 0.088

## TCAGGGGGGT
  switch fluorescence ratio: 1.11 ± 0.3

## TCAGGGGTCG
  switch fluorescence ratio: 1.05 ± 0.056

## TCAGGGGTGG
  switch fluorescence ratio: 1 ± 0.058

## TCAGGGTGAA
  switch fluorescence ratio: 1.02 ± 0.041

## TCAGGGTTGG
  switch fluorescence ratio: 0.978 ± 0.024

## TCAGGGTTTT
  switch fluorescence ratio: 1.01 ± 0.018

## TCAGGTGGGT
  switch fluorescence ratio: 1.22 ± 0.22

## TCAGTAATTT
  switch fluorescence ratio: 1.03 ± 0.032

## TCAGTACATG
  switch fluorescence ratio: 0.992 ± 0.02

## TCAGTCAGCT
  switch fluorescence ratio: 1 ± 0.039

## TCAGTCCGGA
  switch fluorescence ratio: 1.02 ± 0.024

## TCAGTGACGT
  switch fluorescence ratio: 0.9827 ± 0.0096

## TCAGTGCCAG
  switch fluorescence ratio: 0.992 ± 0.022

## TCAGTTAATT
  switch fluorescence ratio: 1.008 ± 0.0099

## TCAGTTGGTT
  switch fluorescence ratio: 0.977 ± 0.064

## TCAGTTGTAT
  switch fluorescence ratio: 0.979 ± 0.011

## TCAGTTTAGC
  switch fluorescence ratio: 1.01 ± 0.016

## TCAGTTTGGT
  switch fluorescence ratio: 0.99 ± 0.017

## TCATAAAGGG
  switch fluorescence ratio: 1.03 ± 0.0064

## TCATAAGGGA
  switch fluorescence ratio: 0.997 ± 0.028

## TCATAAGTTG
  switch fluorescence ratio: 0.9957 ± 0.0042

## TCATACCATT
  switch fluorescence ratio: 1 ± 0.024

## TCATAGAGTA
  switch fluorescence ratio: 1.02 ± 0.018

## TCATAGGATT
  switch fluorescence ratio: 0.995 ± 0.04

## TCATAGGTTT
  switch fluorescence ratio: 0.974 ± 0.038

## TCATAGTCGG
  switch fluorescence ratio: 1 ± 0.024

## TCATATGGTG
  switch fluorescence ratio: 1.03 ± 0.038

## TCATCGTCT
  switch fluorescence ratio: 1.01 ± 0.023

## TCATCTTTTT
  switch fluorescence ratio: 0.9477 ± 0.0022

## TCATGAACTT
  switch fluorescence ratio: 1.07 ± 0.078

## TCATGATAGT
  switch fluorescence ratio: 0.9825 ± 0.0081

## TCATGCCAAC
  switch fluorescence ratio: 1.03 ± 0.011

## TCATGCCGGG
  switch fluorescence ratio: 1.04 ± 0.014

## TCATGCTGAG
  switch fluorescence ratio: 0.98 ± 0.0077

## TCATGGAGTA
  switch fluorescence ratio: 0.981 ± 0.08

## TCATGGATAG
  switch fluorescence ratio: 1.006 ± 0.002

## TCATGGCGGT
  switch fluorescence ratio: 1.01 ± 0.014

## TCATGGGGGA
  switch fluorescence ratio: 1.03 ± 0.046

## TCATGGGGTT
  switch fluorescence ratio: 1.006 ± 0.0065

## TCATGTATTG
  switch fluorescence ratio: 1.01 ± 0.037

## TCATTAATTT
  switch fluorescence ratio: 0.9873 ± 0.0086

## TCATTCAACT
  switch fluorescence ratio: 1 ± 0.013

## TCATTCAAGT
  switch fluorescence ratio: 1.04 ± 0.011

## TCATTCCATT
  switch fluorescence ratio: 0.988 ± 0.031

## TCATTCGCAG
  switch fluorescence ratio: 3.73 ± 0.77

## TCATTCGTCC
  switch fluorescence ratio: 1.099 ± 0.0056

## TCATTGGGG
  switch fluorescence ratio: 0.974 ± 0.029

## TCATTTAAGG
  switch fluorescence ratio: 0.987 ± 0.02

## TCATTTATTG
  switch fluorescence ratio: 1.02 ± 0.024

## TCATTTTTTT
  switch fluorescence ratio: 0.997 ± 0.036

## TCCAACGTAT
  switch fluorescence ratio: 1.493 ± 0.0064

## TCCAAGGGAT
  switch fluorescence ratio: 1.01 ± 0.012

## TCCAAGGGGT
  switch fluorescence ratio: 1.06 ± 0.044

## TCCAAGTCCC
  switch fluorescence ratio: 1.018 ± 0.0088

## TCCAATCGGT
  switch fluorescence ratio: 0.973 ± 0.019

## TCCAATCTCT
  switch fluorescence ratio: 1.06 ± 0.02

## TCCAATTGGA
  switch fluorescence ratio: 0.9855 ± 0.0021

## TCCAATTGGG
  switch fluorescence ratio: 1.11 ± 0.09

## TCCACTCTTC
  switch fluorescence ratio: 0.991 ± 0.024

## TCCAGACGGC
  switch fluorescence ratio: 1 ± 0.013

## TCCAGGGCGA
  switch fluorescence ratio: 1.16 ± 0.13

## TCCAGGGTAA
  switch fluorescence ratio: 1.0425 ± 0.00073
